Biological target: SARS-CoV-2原始毒株的RBD蛋白 (SARS-CoV-2 RBD-his蛋白) (SARS-CoV-2 original strain, UniProt P0DTC2 319-541)

B1: 单链纳米抗体R14 (R14-his蛋白) (VHH)
VHH: QVQLQESGGGLVQPGGSLRLSCAVSGFTLDYYAIGWFRQAPGKEREGVSCISSSDGSTSYADSVKGRFTISRDNAKNTVYLQMNSLKPEDTALYYCAATPATYYSGRYYYQCPAGGMDYWGQGTQVTVSS
In the case of B1, the Kd is reported as less than 0.1 nM.

From CN116813757A (INST MICROBIOLOGY CAS, dated 2023)
